Changes are numbered by the printed parent chain. Where no end group is shown, it is not given here. AF594 = Alexa Fluor 594
Tests used:
PDL1+SKOV3 cells = test: Cell binding assay with AF594-labeled binder, SKOV3 cells; assay type: cell-based, human
Experimental: FIG. 3. Cell binding assay. Binding of control antibodies are shown on the top and the binding for the designed binders are shown the bottom. […] These proteins bind their targets with low to mid nanomolar affinities based on octet data (see FIG. 2A-C). […] The rest of the designs with and without conjugated AF594 are well behaved, remain folded to 60-70° C., and completely refold upon cooling to room temperature. We show sequence, secondary structure information, and interface positions for EpcamBind1_cb4, EpcamBind2_cb10, and, PDL1Bind_cb6 in FIG. 5.

[1] = molecular target: T1, human epithelial cell adhesion molecule (EpCAM) receptor, extracellular portion (human, UniProt P16422 24-265); test: Octet (BLI), kinetic fitting to association and dissociation; binder 1000 nM to 15.6 nM
T1 construct: extracellular domain; also called human EpCAM receptor
T1 sequence (looked up): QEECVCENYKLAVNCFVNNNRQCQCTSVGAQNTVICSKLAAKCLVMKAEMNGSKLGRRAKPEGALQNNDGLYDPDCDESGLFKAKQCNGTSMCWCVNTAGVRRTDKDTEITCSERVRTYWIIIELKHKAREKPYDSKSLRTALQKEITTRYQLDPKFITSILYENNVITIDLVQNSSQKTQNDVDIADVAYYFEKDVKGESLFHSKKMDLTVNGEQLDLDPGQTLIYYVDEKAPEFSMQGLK
Experimental: FIG. 2B. Octet data for EpcamBind2_cb10. […] Concentrations span a range from 1000 nM (top curve) to 15.6 nM (bottom curve) by two-fold dilution.
(§1) In one embodiment of any of the polypeptides of the disclosure, the polypeptide bind to their targets with nanomolar affinity as measured by octet. In the octet experiments, the target protein is immobilized onto an octet sensor and the kinetics of the binder binding to the target are measured over a range of binder concentrations to determine the binders affinity.

[2] = molecular target: T1, human epithelial cell adhesion molecule …; test: yeast surface display screen
[3] = molecular target: T2, human programmed death-ligand 1 (PDL1) receptor, extracellular portion (human, UniProt Q9NZQ7 19-238); test: Octet (BLI), steady state analysis
T2 construct: extracellular domain; also called human PDL1

[4] = molecular target: T2, human programmed death-ligand 1 (PDL1) …; test: yeast surface display screen
[5] = molecular target: T1, human epithelial cell adhesion molecule …; test: Octet (BLI), kinetic fitting to association and dissociation; binder 20 nM to 0.5 nM
Experimental: FIG. 4. Octet data for gs linked dimer of EpCAMBind1_cterm_cys. […] Concentrations from top curve to bottom curve are 20 nM, 10 nM, 5 nM, 2.5 nM, 1 nM and 0.5 nM.
as §1

human EpCAM receptor = molecular target: T3, human EpCAM receptor (Homo sapiens, UniProt P16422); test: Octet binding to immobilized human EpCAM
T3 sequence (P16422 24-265 limits assumed): T1 sequence (looked up)
Experimental: as §1

[6] = molecular target: T4, PDL1 on PDL1+ SKOV3 cells (human, UniProt Q9NZQ7 19-290); test: flow cytometry on PDL1 (+) cells (PDL1+ SKOV3), binder at 500 nM and 5 uM by the legend, fluorescence at 561 nm
T4 construct: whole, on cells

[7] = molecular target: T1, human epithelial cell adhesion molecule …; test: Octet (BLI), kinetic fitting to association and dissociation; binder 100 nM to 1.56 nM
Experimental: FIG. 2A. Octet data for EpcamBind1_cb4. […] Concentrations span a range from 100 nM (top curve) to 1.56 nM (bottom curve) by two-fold dilution.
as §1

T2 sequence (Q9NZQ7 19-238): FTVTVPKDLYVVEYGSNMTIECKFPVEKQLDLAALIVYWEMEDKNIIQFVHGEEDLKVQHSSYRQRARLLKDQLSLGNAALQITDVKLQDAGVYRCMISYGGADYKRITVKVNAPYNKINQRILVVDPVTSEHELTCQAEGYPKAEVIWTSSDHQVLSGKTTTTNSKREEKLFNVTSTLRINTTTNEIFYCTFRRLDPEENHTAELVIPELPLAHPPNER
T4 sequence (Q9NZQ7 19-290): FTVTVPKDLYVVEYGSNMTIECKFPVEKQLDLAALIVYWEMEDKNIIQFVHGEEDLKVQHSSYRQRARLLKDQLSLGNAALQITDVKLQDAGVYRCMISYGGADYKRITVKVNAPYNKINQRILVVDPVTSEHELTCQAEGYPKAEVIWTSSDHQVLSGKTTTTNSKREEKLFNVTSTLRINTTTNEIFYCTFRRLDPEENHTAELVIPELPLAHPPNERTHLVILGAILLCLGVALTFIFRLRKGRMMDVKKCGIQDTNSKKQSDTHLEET

Molecule: PDL1Bind1_E39C-AF594 (DEDTDRVFELLNEFNELREEGDPERAREVLEEAERLAKCLSDPTLESFVQAIKRVY)
- binding to PDL1+SKOV3 cells (PDL1+SKOV3 cells; 500 nM and 5 uM): specifically binds
- nonspecific binding to PDL1− cells (PDL1+SKOV3 cells; 5 uM, comparable to control antibody): some minor nonspecific binding

B1: EpcamBind2_cb10 (designed binder)
chain: DEVQHEVHELMVRIHSLVVRGNPEEARKLLEELEELAKKTNNPSYHIAVEALEHVIN
notes: Optimized de novo miniprotein against human EpCAM
- Kd [1]: 500 nM

B2: EpcamBind2 (designed binder)
chain: B1 chain with M11F, H15Q, S16E, T40Y, N42D, Y45L, H54R
- binding result [2]: binds

B3: PDL1Bind_cb6 (designed binder)
chain: DEDTDRVFELLNEFNELREEGDPERAREVLEEAERLAKELSDPTLESFVQAIKRVY
notes: Optimized de novo miniprotein against human PDL1
- Kd [3]: 2 nM

B4: Pdl1Bind (designed binder)
chain: DEDTRRVMELLHEASELREEGDPERAREVLEEAERLAKELGDPSLERFVQAHKRVY
- binding result [4]: binds

B5: gs linked dimer of EpCAMBind1_cterm_cys (designed binder)
chain: DEERLRELVEELVKELGLSERYKRTLERHLRTALEQGYDEEQIRMNLEQLAQQAREIGGSGGSDEERLRELVEELVKELGLSERYKRTLERHLRTALEQGYDEEQIRMNLEQLAQQAREI
notes: also called EpCAM1_dimer
- Kd [5]: < 0.01 nM

B6: gs linked dimer of EpCAMBind1_cterm_cys: gs linked fusion dimer of EpCAMBind1; possibly related to EpCAM1_dimer, SEQ ID NO:18 (protein)
chain: B5 chain
- binding affinity in words, EpCAM (human EpCAM receptor): low picomolar
- estimated Kd (human EpCAM receptor; kinetic fitting to association and dissociation, 20 nM to 0.5 nM): < 0.01 nM

B7: PDL1Bind1_E39C-AF594 (designed binder)
chain: DEDTDRVFELLNEFNELREEGDPERAREVLEEAERLAKC(AF594)LSDPTLESFVQAIKRVY
- binding result [6]: binds

B8: EpcamBind1_cb4 (designed binder)
chain: DEERLRELVEELVKELGLSERYKRTLERHLRTALEQGYDEEQIRMNLEQLAQQAREI
notes: Optimized de novo miniprotein (three helices) against human EpCAM
- Kd [7]: 5.6 nM

Reference: patent publication US20250250301A1, “DE NOVO DESIGNED BINDERS TARGETING HUMAN EPCAM AND PDL1 RECEPTORS” (University of Washington, priority 2022, published 2025)
